Consider 15 molecules from PMC11555231, “A cyclic peptide toolkit reveals mechanistic principles of peptidylarginine deiminase IV regulation” (Nature Communications, 2024).

Bridge positions count the residues as written; N and C are the ends. Square brackets hold non-standard residues; d marks the D form. Some results are limits rather than exact numbers.

Assay [1] concerns the target T1, N-terminally biotinylated recombinant human PADI4 (bio-His-PADI4) (human, UniProt Q9UM07 1-663, biotin on the N-terminal Avi-Tag (BirA)).
T1 construct: human peptidylarginine deiminase IV (PADI4), residues 1-663; (vector p28BIOH-LIC, Addgene plasmid 62352); also called Bio-hPADI4 wt; PADI4_WT; source: E. coli BL21-DE3 co-expressing biotin ligase (BirA), purified (Ni-NTA, S200 SEC); not shown: Avi-Tag (biotinylated), N-terminal, kept; His6, N-terminal, kept
The assay is described as follows: SPR; single cycle kinetics, Biacore T200 or S200; Bio-His-PADI4 captured on a Biotin CAPture chip (~2000 RU), peptide as analyte; 50 mM HEPES pH 7.5, 150 mM NaCl, 2 mM DTT, 0.05% Tween-20, 0.1% DMSO, 10 mM CaCl2; 25 °C; 1:1 binding model. The following applies: both partners purified.

Assay [2] deals with T2, bio-His-PADI4 with the active site covalently blocked by Cl-amidine (human, UniProt Q9UM07 1-663, biotin on the N-terminal Avi-Tag (BirA); active site covalently blocked with Cl-amidine (residue not stated)).
T2 construct: human peptidylarginine deiminase IV (PADI4), residues 1-663; Same protein as m1; also called 10 mM CaCl2 + Cl-amidine; source: E. coli BL21-DE3 co-expressing biotin ligase (BirA), purified (Ni-NTA, S200 SEC); treated with Cl-amidine; not shown: Avi-Tag (biotinylated), N-terminal, kept; His6, N-terminal, kept
T2 sequence (Q9UM07 whole entry, the tested form may be a part): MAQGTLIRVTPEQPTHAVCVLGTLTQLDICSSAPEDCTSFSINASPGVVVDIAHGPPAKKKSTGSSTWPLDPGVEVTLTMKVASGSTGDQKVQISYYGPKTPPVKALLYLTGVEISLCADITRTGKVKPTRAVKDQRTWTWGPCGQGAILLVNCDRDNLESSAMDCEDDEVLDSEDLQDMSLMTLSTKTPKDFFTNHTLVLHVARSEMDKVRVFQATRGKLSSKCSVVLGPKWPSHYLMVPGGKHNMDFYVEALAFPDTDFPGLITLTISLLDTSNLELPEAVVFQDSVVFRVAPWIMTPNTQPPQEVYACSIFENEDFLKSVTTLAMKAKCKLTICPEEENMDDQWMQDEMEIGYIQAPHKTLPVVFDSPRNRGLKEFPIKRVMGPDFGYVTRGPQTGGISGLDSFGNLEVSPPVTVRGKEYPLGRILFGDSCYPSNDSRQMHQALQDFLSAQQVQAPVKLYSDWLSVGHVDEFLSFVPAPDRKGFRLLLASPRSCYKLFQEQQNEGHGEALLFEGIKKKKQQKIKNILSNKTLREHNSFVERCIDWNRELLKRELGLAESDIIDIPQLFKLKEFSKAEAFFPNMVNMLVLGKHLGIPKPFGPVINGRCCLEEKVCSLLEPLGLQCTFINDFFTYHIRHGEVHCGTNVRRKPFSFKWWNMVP
Nature of the assay: SPR; as a1 with 10 mM CaCl2 and the PADI4 active site blocked with Cl-amidine; Bio-His-PADI4 captured, peptide as analyte; 25 °C; 1:1 binding model. The following applies: both partners purified.

In assay [3] the target is T1, N-terminally biotinylated recombinant …. The assay is described as follows: SPR; as a1 but 0 mM CaCl2 (calcium-free running buffer); Bio-His-PADI4 captured, peptide as analyte; 25 °C; 1:1 binding model. The settings on record: both partners purified.
In assay [4] the target is T3, N-terminally biotinylated human PADI4 (bio-His-PADI4) (human, UniProt Q9UM07 1-663, G55S (read from the plasmid's DNA at D1:p46, codon AGC)); not stated by the …, biotin on the Avi-Tag (BirA)).
T3 construct: human PADI4, residues 1-663, cloned into p28BIOH-LIC; The COLDER assays used His-PADI4 from the same plasmid made without BirA (not biotinylated); also called Bio-hPADI4 wt; Avi-His-PADI4; source: E. coli BL21-DE3 co-expressing biotin ligase (BirA), purified (Ni-NTA, S200 size exclusion); not shown: Avi-Tag, N-terminal, kept; His6, N-terminal, kept
T3 sequence (Q9UM07 whole entry G55S/V82A/G112A, the tested form may be a part): as the sequence (Q9UM07 whole entry, the tested form may be a part) above, with G55S, V82A, G112A counted along it
The assay is described as follows: SPR; single cycle kinetics; Bio-His-PADI4 captured on a Biotin CAPture chip, peptide as analyte; 25 °C; 50 mM HEPES pH 7.5, 150 mM NaCl, 2 mM DTT, 0.05% Tween-20, 0.1% DMSO; CaCl2 concentration not stated for these data; 1:1 binding model. The settings on record: both partners purified. On the technique in general: Surface plasmon resonance follows binding to a sensor surface in real time, without labels.

The target in assay [5] is His-tagged recombinant human PADI4 (His-PADI4) (human, UniProt Q9UM07 1-663). Nature of the assay: cell-based or functional assay.
Chain of His-tagged recombinant human PADI4 (His-PADI4) (Q9UM07 whole entry): as the sequence (Q9UM07 whole entry, the tested form may be a part) above
Assay [6] deals with T3, N-terminally biotinylated human PADI4 …. Nature of the assay: SPR; as a1 with 10 mM Ca2+ and 200 µM Cl-amidine (PADI4 active site covalently blocked with Cl-amidine). The following applies: both partners purified.
The target is the same in assay [7]. Nature of the assay: SPR; single cycle kinetics, Biacore T200 or S200; Bio-His-PADI4 captured on a Biotin CAPture chip (~2000 RU), peptide as analyte; 25 °C; 50 mM HEPES pH 7.5, 150 mM NaCl, 2 mM DTT, 0.05% Tween-20, 0.1% DMSO, 10 mM Ca2+; 1:1 binding model. The settings on record: both partners purified.
In assay [8] the target is human PADI4 stably expressed in E14 mouse embryonic stem cells (hPADI4-stable) (human, UniProt Q9UM07 1-663). Nature of the assay: cell-based or functional assay.
Chain of human PADI4 stably expressed in E14 mouse embryonic stem cells (hPADI4-stable) (Q9UM07 whole entry): as the sequence (Q9UM07 whole entry, the tested form may be a part) above
In assay [9] the target is T4, PADI4_C166F (human, UniProt Q9UM07 1-663, C166F).
T4 construct: source: E. coli BL21-DE3, purified (Ni-NTA, S200 SEC), as told for the wild type
T4 sequence (Q9UM07 whole entry C166F): as the sequence (Q9UM07 whole entry, the tested form may be a part) above, with C166F counted along it
Nature of the assay: SPR; single cycle kinetics; biotinylated PADI4 (wild type or single-residue variant) captured on a Biotin CAPture chip, peptide or peptide analogue as analyte; 50 mM HEPES pH 7.5, 150 mM NaCl, 2 mM DTT, 0.05% Tween-20, 0.1% DMSO; 25 °C; CaCl2 concentration not told for these runs. The settings on record: both partners purified.

Assay [10] has as its target T5, PADI4_E167A (human, UniProt Q9UM07 1-663, E167A).
T5 construct: human PADI4, residues 1-663, single substitution; source: E. coli BL21-DE3, purified (Ni-NTA, S200 SEC), as told for the wild type
Described as above. The following applies: both partners purified.

The target of assay [11] is T6, PADI4_R394A (human, UniProt Q9UM07 1-663, R394A).
T6 construct: human PADI4, residues 1-663, single substitution; source: E. coli BL21-DE3, purified (Ni-NTA, S200 SEC), as told for the wild type
T6 sequence (Q9UM07 whole entry R394A, the tested form may be a part): as the sequence (Q9UM07 whole entry, the tested form may be a part) above, with R394A counted along it
The description is as above. The following applies: both partners purified.

In the next assay the target is T7, PADI4_N373A (human, UniProt Q9UM07 1-663, N373A).
T7 construct: human PADI4, residues 1-663, single substitution; source: E. coli BL21-DE3, purified (Ni-NTA, S200 SEC), as told for the wild type
T7 sequence (Q9UM07 whole entry N373A, the tested form may be a part): as the sequence (Q9UM07 whole entry, the tested form may be a part) above, with N373A counted along it
The description is as above. The following applies: both partners purified.

Assay [12] concerns the target T8, PADI4_D165A (human, UniProt Q9UM07 1-663, D165A).
T8 construct: human PADI4, residues 1-663, single substitution made by mutagenesis of the plasmid; source: E. coli BL21-DE3, purified (Ni-NTA, S200 SEC), as told for the wild type
The assay is described as above. The settings on record: both partners purified.

Assay [13] deals with T9, PADI4_D168A (human, UniProt Q9UM07 1-663, D168A).
T9 construct: human PADI4, residues 1-663, single substitution; source: E. coli BL21-DE3, purified (Ni-NTA, S200 SEC), as told for the wild type
T9 sequence (Q9UM07 whole entry D168A, the tested form may be a part): as the sequence (Q9UM07 whole entry, the tested form may be a part) above, with D168A counted along it
Described as above. The settings on record: both partners purified.

Assay [14] deals with T4, PADI4_C166F. Nature of the assay: cell-based or functional assay.
Assay [15] addresses T5, PADI4_E167A. Nature of the assay: cell-based or functional assay.
Assay [16] has as its target T6, PADI4_R394A. The assay is described as follows: cell-based or functional assay.
The target of assay [17] is T8, PADI4_D165A. The assay is described as follows: cell-based or functional assay.
Assay [18] has as its target T9, PADI4_D168A. The assay is described as follows: cell-based or functional assay.

T1 sequence (Q9UM07 whole entry, the tested form may be a part): as the sequence (Q9UM07 whole entry, the tested form may be a part) above
T8 sequence (Q9UM07 whole entry D165A, the tested form may be a part): as the sequence (Q9UM07 whole entry, the tested form may be a part) above, with D165A counted along it
T5 sequence (Q9UM07 whole entry E167A, the tested form may be a part): as the sequence (Q9UM07 whole entry, the tested form may be a part) above, with E167A counted along it

B1: PADI4_9 (peptide)
peptide: YAQWYIWVLLCG
modifications: not fully specified; D-tyrosine at position 1; cyclised via a thioether bond between the N-terminus (chloroacetylated) and the cysteine side chain (Cys11, from the letters); C-terminal amide
notes: cyclic peptide from RaPID selection 2 (0 mM CaCl2); source: synthetic peptide (Fmoc solid-phase synthesis, HPLC purified)
For orientation: Kd means the concentration at which binding is half-saturated. For the molecule B1, the Kd in assay [1], in [2] and in [3] was more than 2000 nM in each case.

B2: PADI4_3i (peptide)
chain: YDRHHYRHPKYCG
modifications: not fully specified; D-tyrosine at position 1; acetylated N-terminus joined by a thioether bond to the side chain of Cys12 (cyclic); C-terminal amide
In turn, B2 gave a Kd in assay [4] of more than 10000 nM.

B3: PADI4_12 (peptide)
peptide: YEPCRFREILDL
modifications: not fully specified; L-tyrosine at position 1; cyclised via a thioether bond between the N-terminus (chloroacetylated) and the cysteine side chain (Cys4, from the letters); C-terminal amide
For B3, the “fold reduction of the calcium requirement K50(Ca2+) of PADI4 activity by 30 µM peptide (COLDER assay)” value in [5] is 4 fold.

B4: PADI4_10 (peptide)
peptide: YPWEISVWLLYCG
modifications: not fully specified; D-tyrosine at position 1; cyclised via a thioether bond between the N-terminus (chloroacetylated) and the cysteine side chain (Cys12, from the letters); C-terminal amide
notes: as for B1
In the case of B4, the Kd in assay [1], in assay [2] and in assay [3] was more than 2000 nM throughout.

B5: PADI4_12 (peptide)
peptide: YEPCRFREILDL
modifications: not fully specified; acetylated N-terminus (L-tyrosine 1) joined by a thioether bond to the side chain of Cys4 (cyclic); C-terminal amide
notes: cyclic peptide from RaPID selection 3; also called PAD4_12; source: synthetic peptide (Fmoc solid-phase synthesis, HPLC-purified)
The koff is the first-order rate constant of dissociation. High values mean a short-lived complex, low ones a long-lived complex. As a reminder, the kon is the rate constant with which the complex forms. Read a low kon as slow association. For the molecule B5, in [6], the koff was 0.2 s⁻¹ and the kon worked out at 300000 M⁻¹ s⁻¹. In assay [7], this molecule displayed a Kd of 679 nM, a koff of 0.1 s⁻¹ and a kon of 200000 M⁻¹ s⁻¹.

B6: PADI4_2 (peptide)
peptide: YRDHRSPFDGYCG
modifications: not fully specified; D-tyrosine at position 1; cyclised via a thioether bond between the N-terminus (chloroacetylated) and the cysteine side chain (Cys12, from the letters); C-terminal amide
Regarding B6, in [5], the “IC50 of inhibition of PADI4 activity (COLDER assay, substrate BAEE, 10 mM CaCl2, 50 nM PADI4)” value was found to be 209 nM.

B7: PADI4_3 (peptide)
peptide: {CH2CO}-[dY]RDHHYRHPKYCG-NH2
modifications: thioether N-12
notes: cyclic peptide from RaPID selection 1 (10 mM CaCl2); source: synthetic peptide (Fmoc solid-phase synthesis, HPLC purified)
For B7, the “EC50 of inhibition of H3 citrullination in hPADI4-stable mES cells stimulated with KSR/2i for 3 h (high-content imaging)” value in [8] stood at 200 nM. Further, the Kd with PADI4_C166F [9] amounted to 3 nM; with PADI4_E167A [10], 7 nM; with PADI4_R394A [11], 8 nM; with PADI4_N373A it was 83 nM; with PADI4_D165A [12] it was 61 nM; in the assay with PADI4_D168A [13] it was 20 nM.

B8: PADI4_11 (peptide)
peptide: YESCRYRQVLQL
modifications: not fully specified; acetylated N-terminus (L-tyrosine 1) joined by a thioether bond to the side chain of Cys4 (cyclic); C-terminal amide
notes: cyclic peptide from RaPID selection 3; also called PAD4_11; source: synthetic peptide (Fmoc solid-phase synthesis, HPLC-purified)
In assay [6], B8 had a koff of 0.1 s⁻¹ and a kon of 300000 M⁻¹ s⁻¹. In assay [7], this molecule displayed a koff of 0.1 s⁻¹ and a kon of 200000 M⁻¹ s⁻¹.

B9: PADI4_4 (peptide)
peptide: YHRLIVVIYVCG
modifications: not fully specified; D-tyrosine at position 1; cyclised via a thioether bond between the N-terminus (chloroacetylated) and the cysteine side chain (Cys11, from the letters); C-terminal amide
notes: as for B7
With B9, the Kd in assay [1], in assay [2] and in assay [3] was more than 2000 nM in each case.

B10: PADI4_6 (peptide)
peptide: YLVLTIRLVLCG
modifications: not fully specified; D-tyrosine at position 1; cyclised via a thioether bond between the N-terminus (chloroacetylated) and the cysteine side chain (Cys11, from the letters); C-terminal amide
notes: as for B7
Turning to B10, the Kd in assay [1], in [2] and in [3] was more than 2000 nM throughout.

B11: PADI4_7 (peptide)
peptide: YYPKGSWGYKLFCG
modifications: not fully specified; D-tyrosine at position 1; cyclised via a thioether bond between the N-terminus (chloroacetylated) and the cysteine side chain (Cys13, from the letters); C-terminal amide
notes: cyclic peptide from RaPID selection 2 (0 mM CaCl2); also called PAD4_7; source: synthetic peptide (Fmoc solid-phase synthesis, HPLC purified)
Consider B11, for which the Kd in assay [1] was found to be 39 nM; in assay [2] it was 36 nM; in assay [3], 8 nM.

B12: PADI4_5 (peptide)
peptide: YATPWLIVVLCG
modifications: not fully specified; D-tyrosine at position 1; cyclised via a thioether bond between the N-terminus (chloroacetylated) and the cysteine side chain (Cys11, from the letters); C-terminal amide
notes: as for B7
As to B12, the Kd in assay [1], in assay [2] and in assay [3] was more than 2000 nM each time.

B13: PADI4_1 (peptide)
peptide: YFYRIGFWYPNYQCG
modifications: not fully specified; D-tyrosine at position 1; cyclised via a thioether bond between the N-terminus (chloroacetylated) and the cysteine side chain (Cys14, from the letters); C-terminal amide
notes: cyclic peptide from RaPID selection 1 (10 mM CaCl2); also called PAD4_1; source: synthetic peptide (Fmoc solid-phase synthesis, HPLC purified)
In the case of B13, the Kd was 205 nM in [1], 727 nM in assay [2] and 105 nM in assay [3].

B14: PADI4_8 (peptide)
peptide: YTLWTVLVVICCG
modifications: not fully specified; D-tyrosine at position 1; cyclised via a thioether bond between the N-terminus (chloroacetylated) and the cysteine side chain (the cysteine marked C(S-), Cys11 from the letters); C-terminal amide
notes: as for B1
Consider B14, for which the Kd in [1], in assay [2] and in [3] was more than 2000 nM each time.

B15: PADI4_11 (peptide)
peptide: {CH2CO}-YESCRYRQVLQL-NH2
modifications: thioether N-4
notes: cyclic (lariat) peptide from RaPID selection 3 (10 mM CaCl2 + Cl-amidine); also called PAD4_11; source: synthetic peptide (Fmoc solid-phase synthesis, HPLC purified)
Consider B15, for which the “ratio of K50(Ca2+) with DMSO to K50(Ca2+) with 30 µM PADI4_11 (COLDER assay)” value amounted to 0.9 fold in the assay with PADI4_C166F [14]; 2.7 fold in the assay with PADI4_E167A [15]; 1.1 fold with PADI4_R394A [16]; 1.5 fold with PADI4_D165A [17]; 2.9 fold with PADI4_D168A [18]. Further, the Kd in the assay with PADI4_C166F [9] was more than 10000 nM; in the assay with PADI4_E167A [10] it was 700 nM; in the assay with PADI4_R394A [11] it was more than 10000 nM; with PADI4_N373A it was more than 10000 nM; with PADI4_D165A [12], 3000 nM; with PADI4_D168A [13], 4000 nM.
